Source: the nanobody polyreactivity screen of Harvey et al. (2022)

Experiment: yeast display, Sf9 membrane polyspecificity reagent, FACS + sequencing; frameworks hold sequencing errors
How it was run: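 Galactose induction of a Saccharomyces cerevisiae BJ5465 synthetic nanobody display library ran 36–48 hours. The cells were then stained for 1 hour at 4 °C with 10% biotinylated, detergent-solubilized Sf9 membrane reagent, pulled down on streptavidin microbeads and FACS-sorted into low and high (top ~1%) gates on expression and reagent-binding fluorescence. Labels for polyreactivity follow the gate of origin.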

| Sequence | polyreactivity (PSR sort gate) |
| --- | --- |
| QVQLVESGGGLVQAGGSLRLSSAASGRTFYYYAFGWYRQAPGKERELVARITAICGRTYYADSVKGRFTISLDNAKNTVYLQMNCLKPEDTAVYYCAAASWPAYSYYPFYYWGQGSQVTVSS | high polyreactivity |
| QVQLVESGGGLVQAGGSLRLSSAASGRTISNYDMGWYRQAPGKERELVAAITYSGGSTYYADSVKGRFTISRDNAKNTVYLQMNSLKPEDTAVYYCAKISGTYYRYDYWGQGTQVTVSS | high polyreactivity |
| QVQLVESGGGLVQAGGSLRLSSAASGSIFDPYAMGWYRQAPGKERELVAGISFSGGRTYYADSVKGRFTISRDNAKNTVYLQMNSLKPEDTAVYYCNKLLTQGAYPYYYWGQGTQVTVSS | high polyreactivity |
| QVQLVESGGGLVQAGGSLRLSSAASGSIFGANAIGWYRQAPGKERELVAAISRRGRSTYYADSVKGRFTISRDNAKYTVYLQLNSLKPEDTAVYYSAAKRPQYYVQYGYWGQGTQVTVSS | high polyreactivity |
| QVQLVESGGGLVQAGGSLRLSSAASGSIFGDYVMGWYRPAPGKERELVAAINRGGSTYYADSVKGRFTISRDNAKNTVYLQMNSLKPEDTAVYDCAKDYHNYPSFGVDYCGQGTQVTVSS | low polyreactivity |
| QVQLVESGGGLVQAGGSLRLSSAASGSIFGPYAMGWYRQAPGKERELVAAITWTGGRTYYADSVKGRFTISRDNAKKTVYLQMHSLKPEDTAVDYCAADYSPSTWYLYYTLYYYWGQGTQVTVSS | low polyreactivity |
| QVQLVESGGGLVQAGGSLRLSSAASGSIFGYNPMGWYRPAPGKERELVAAIRISTDNTYYADSVKGRFTISRDNAKNTVYLQMNSLKPEDTAVDYCAADEYWWGYYYWGQGTQVTVSS | high polyreactivity |
| QVQLVESGGGLVQAGGSLRLSSAASGSIFKINAMGWYRQAPGKETELVATITWSTGTTYYADSVKGRFTISRDNAKNTVYLQMNSLKPEDTAVYYCATDGDSTKLDYWGQVTQVTVSS | low polyreactivity |
| QVQLVESGGGLVQAGGSLRLSSAASGSIFLKNAMGRSRQAPGKERELVARISFSGGSTYYADSVKGRFTISRDNAQNTVYLQMNSLKPEDTAVYYCAKTVLRTESGWWIKFDYWGQGTQVTVSS | low polyreactivity |
| QVQLVESGGGLVQAGGSLRLSSAASGSIFSQYDIGWYRPAPGKERQLVAAISSGGSTYYADSVKGRFTISRYNAKNTVYLQMNSLKPEDTAVYYCAAVYYQITTTHYLHLHYDYWGQGTQVTVSS | low polyreactivity |
| QVQLVESGGGLVQAGGSLRLSSAASGSIFVNYVMGWYRQAPGKERELVADISSGGSTYYADSVKGRFTISRDNAKNTVYLQMNSLKPEDTAVYYCNAVYPYTYDYWGQGTQVTVSS | low polyreactivity |
| QVQLVESGGGLVQAGGSLRLSSAASGSIFYDNAMAGYRQAPGKERELVAVITVSGESTYYADSVKGRFTISRDNAKTTVYLQMNSLKPEDTAVYYCNTDAISGSHFWRYITFGYLDDYWGQGTQVTVSS | low polyreactivity |
| QVQLVESGGGLVQAGGSLRLSSAASGSIFYDYAMGWYRQAPGKERELVAAITNDDSSTYYADSVKGRFTISRDNAKNTVYLQMNSLKPEDTAVYYCRFKYAVAHHFWVYRYDYWGQGTQVTVSS | low polyreactivity |
| QVQLVESGGGLVQAGGSLRLSSAASGSIFYGNTMGWYRQAPGKERELVAAIRSVGRTYYADSVKGRFTISRDNAKNTDSLQMNSLKPEDTAVYYCAADPRSYFTSEYWGQGSQVTVSS | low polyreactivity |
| QVQLVESGGGLVQAGGSLRLSSAASGSIFYYYAMGWYRQAPGKARELVATINISDGSTYYAVSVKGRFTISRDNAKNTVYLQMNSLKPEDTAVYYCAAYYYFQDYDYWGQGTQVTVSS | low polyreactivity |
| QVQLVESGGGLVQAGGSLRLSSAASGSIIQSNAIGGYRQAPGTERELVAAISYRGSRTYYADSVKGRFTISRDNAKNTVYIQMNSLKPDDTAVYYCAAVYRTYGIGPNNYWGQGTQVTVSS | high polyreactivity |
| QVQLVESGGGLVQAGGSLRLSSAASGSTFDYYALGWYSQARGKERELVAAISTSGSSTYYADSVKGRFTISRDNAKNTVYLQMNSLKPVDTAVYYCAAPIRYKGGYWGQGTQVTVSS | low polyreactivity |
| QVQLVESGGGLVQAGGSLRLSSAASGSTFDYYAMGWYRQAPGKERELVDGITYSGGTTYYADSVKGRFTISRDNAKNTVYLQMNSLKPEDTAVYYCNAVYDRNFYYWGQGTQVTVSS | high polyreactivity |
| QVQLVESGGGLVQAGGSLRLSSAASGSTFEIYAMGWYRQAPGKERDLVAGITTSDGRTDYADSVKGRFTISRDNAKNTVYLLMNILKPEDTAVYYCAKVTLGYTWYQYDYWGQGTQVTVSS | low polyreactivity |
| QVQLVESGGGLVQAGGSLRLSSAASGSTFFSYAMGWYRQAPGKERELVAAITRSGGSTYYADSVKGRFTISRDNAKNNVYLHMNSLTPEDTSVYYCAVLSALWRVFTERGYWGQGTQVTVSS | high polyreactivity |
| QVQLVESGGGLVQAGGSLRLSSAASGSTFGYNAMGRYRPAPGKERELVAAISRSGGSTSNADSVMGRFTISRDNANNTVYLQMNSLKPEDTAVYYCAARYYKERYWGQGTQVTVSA | low polyreactivity |

| Sequence | polyreactivity (PSR sort gate) |
| --- | --- |
| QVQLVESGGGLVQAGGSLRLSSAASGSTFHNYAMRWSRQAPGNEREWVASIRLIGGSTYYADSVKGRFTISRDNAKNTVYLQMNSLKPEDTAVYYCAATSTDRSYLEYDYWGQGTQVTVSS | low polyreactivity |
| QVQLVESGGGLVQAGGSLRLSSAASGSTFRTYTMGWYRQAPGKERELVASITSGGRTYYADSVKGRFTISRDNAKNTVYLQMNSMKPEDTAVYYCAADVCKLYDYWGQGTQVTVSS | low polyreactivity |
| QVQLVESGGGLVQAGGSLRLSSAASGSTFRYNAMGWYRQAPGKERELVAAITSTGDSTYYADSVKGRFTISRDNAKNTVYLQMNSLKPEDTAVYYCAARSYASPGWRYEYWGQGTQVTVSS | low polyreactivity |
| QVQLVESGGGLVQAGGSLRLSSAASGSTFRYYPMGWYRQAPGKERELLARISWRGGSTYYADSVKGRFTISRDNAKNTVYLQMNSLKPEDTAVYYCAAVRWVRYRTSAYEYWGQGTQVTVSS | high polyreactivity |
| QVQLVESGGGLVQAGGSLRLSSAASGSTFSLYTMGWYRQEPGKERELVAAITWTGGSTYYADSVKGRFTISRDNAKNTVYLQMNSLKPEDTAVYYCAAVSRLTGSRESQLIRSRMYYWGQGTQVTVSS | high polyreactivity |
| QVQLVESGGGLVQAGGSLRLSSAASGSTFSYYAMGWYRQAPGKDRELVAAITSSGGSTYYADSVKGRFTISRDNAKNTVYLEMNSLKPEDTEVYYCNTAYHVPYDYWGQGTQVTVSS | low polyreactivity |
| QVQLVESGGGLVQAGGSLRLSSAASGSTFTGYTMGWYRQATGKERELVASIRTYYADSVKGRFTISRDNAKNTVYLQMNSLKPEDTAVYYCAADFPSATGGYDYWGQGTQVTVSS | low polyreactivity |
| QVQLVESGGGLVQAGGSLRLSSAASGSTFTRYGMGWYRQAPGKERELVAAITTSGSSTYYADSVKGRFTISRDNAKNTVYLQMNSLKPEDTAVYYCAADWSSWGFDYWGQGTQVTVSS | low polyreactivity |
| QVQLVESGGGLVQAGGSLRLSSAASGSTFVTYAMGWYRQAPGKERELVAAISRRGGSTYYADSVKGRFTISRDNAKNTVYLQMNCLKPEDTAVYYCAPVQGSYSRDGADDYWGQGTQVTVSS | high polyreactivity |
| QVQLVESGGGLVQAGGSLRLSSAASGSTLGVYAMGWYRQAPGKERELVAGITRGGGRTYYADSVKGRFTISRENAKNTVYLQMNSLKPEDTAVYYCNKGQRGPYDYWGQGTQVTVSS | high polyreactivity |
| QVQLVESGGGLVQAGGSLRLSSAASGYILPFYAMGWYRQAPGKERELVASISSSSGRTNYADSVKGRFRISRDYAKNTVFFEMNSLKREVTEVYYCAAAFLSYVSTQYHYDYWGQGTQVSVSS | low polyreactivity |
| QVQLVESGGGLVQAGGSLRLSSAATGITFSSYAMGSYRQAPGKERELVAAISTRGGSTYYADSVKGRFTISRDNAKNTVYLQMNSLKPEDTAVYYCATGGRGGRRYEYWGQGTQVTVSS | low polyreactivity |
| QVQLVESGGGLVQAGGSLRLSSAATGSTSYNDMGWYRQATGKQRELGASITSSGDDTYYADSVKGRFTISRDNAKNTVYLQMNSLKPEDNAVYYCAAEDYHRHVGSYYVIDYDYWGQGTQVTVSS | low polyreactivity |
| QVQLVESGGGLVQAGGSLRLSSAATGYIYSHNAMGWYRQSPGKEREFVAGIDSSGGSTSYADSVKGRFTISRDNAKNTVYLQMNSLKPEDTAVYYCAADRTGSHFDYCGQGTQVTVSS | low polyreactivity |
| QVQLVESGGGLVQAGGSLRLSSADSGFIFSYYAMGWYRQAPGKERELVAAISSVGSTNYADSVKGRFTISRDNAKNTVYLQMNSLKPEDTAVYYCAARYLWYKYYYWGQGTQVTVSS | high polyreactivity |
| QVQLVESGGGLVQAGGSLRLSSADSGRTFRYYSMGWYRQAPGKERELVAAISSSGASTYYADSVKGRFTISRDYAKNTVYLQMNSLKPEDTAVYYCRSGILFYSRYDYWGQGTQVTVSS | low polyreactivity |
| QVQLVESGGGLVQAGGSLRLSSAPSGSTFTRYAMGWYRQAPGKERELVAAITSSGSRTYYADSVKGRFTISRDNAQNTVYLQKNSLKAEDTAVYYFAALGDTRYVGMDHWGQCTQVTVSS | high polyreactivity |
| QVQLVESGGGLVQAGGSLRLSSAPSGSTIHTYTMGWYRQAPGKDRELVAGISRSGGTTYYADSVKGRFTISRDNAKNTVYLQMNSLKPEVTAVYDCNALSSKTDTYDYWGQGTQVTVSS | high polyreactivity |
| QVQLVESGGGLVQAGGSLRLSSDASGFIFSFNALGWYRQAPGKERELVAAISRSGGSTRYADSVKGRFTISRDNAKNTVYLQMNSLKPEDTAVYYCANRFASYRYHPGYDYWGQGTQVTVSS | high polyreactivity |
| QVQLVESGGGLVQAGGSLRLSSDASGRIFYVYTMGWYRQAPGKEREFVAAISDSGGSTYYADSVKGRFTISRDNAKNTVYLQMNSLQTEDTAVYYCNAGYGPAAYYWYYGGYYYWGQGTQVTVSS | low polyreactivity |
